Molecular target: ΔC SSB (Escherichia coli) (UniProt P0AGE0)
Test: SEC

ΔC SSB (from UniProt P0AGE0 1-113) (domain or fragment)
stoichiometry N: 4
